Results on 1 molecule are retold here after patent US20050220796A1.

Experiment [1] concerns the target DNA-dependent protein kinase catalytic subunit (DNA-PKcs) (human) (UniProt P78527). The experiment is described as follows: cell-based or functional assay.
The target is the same in experiment [2]. The experiment in a line: SPR (Biacore X), scFv amine coupled to a CM-5 chip, purified DNA-PKcs as analyte, 25 C. Background: In SPR one partner is held on a chip, and binding of the other changes the refractive index at the surface.

Sequence of UniProt P78527 (P78527 whole entry): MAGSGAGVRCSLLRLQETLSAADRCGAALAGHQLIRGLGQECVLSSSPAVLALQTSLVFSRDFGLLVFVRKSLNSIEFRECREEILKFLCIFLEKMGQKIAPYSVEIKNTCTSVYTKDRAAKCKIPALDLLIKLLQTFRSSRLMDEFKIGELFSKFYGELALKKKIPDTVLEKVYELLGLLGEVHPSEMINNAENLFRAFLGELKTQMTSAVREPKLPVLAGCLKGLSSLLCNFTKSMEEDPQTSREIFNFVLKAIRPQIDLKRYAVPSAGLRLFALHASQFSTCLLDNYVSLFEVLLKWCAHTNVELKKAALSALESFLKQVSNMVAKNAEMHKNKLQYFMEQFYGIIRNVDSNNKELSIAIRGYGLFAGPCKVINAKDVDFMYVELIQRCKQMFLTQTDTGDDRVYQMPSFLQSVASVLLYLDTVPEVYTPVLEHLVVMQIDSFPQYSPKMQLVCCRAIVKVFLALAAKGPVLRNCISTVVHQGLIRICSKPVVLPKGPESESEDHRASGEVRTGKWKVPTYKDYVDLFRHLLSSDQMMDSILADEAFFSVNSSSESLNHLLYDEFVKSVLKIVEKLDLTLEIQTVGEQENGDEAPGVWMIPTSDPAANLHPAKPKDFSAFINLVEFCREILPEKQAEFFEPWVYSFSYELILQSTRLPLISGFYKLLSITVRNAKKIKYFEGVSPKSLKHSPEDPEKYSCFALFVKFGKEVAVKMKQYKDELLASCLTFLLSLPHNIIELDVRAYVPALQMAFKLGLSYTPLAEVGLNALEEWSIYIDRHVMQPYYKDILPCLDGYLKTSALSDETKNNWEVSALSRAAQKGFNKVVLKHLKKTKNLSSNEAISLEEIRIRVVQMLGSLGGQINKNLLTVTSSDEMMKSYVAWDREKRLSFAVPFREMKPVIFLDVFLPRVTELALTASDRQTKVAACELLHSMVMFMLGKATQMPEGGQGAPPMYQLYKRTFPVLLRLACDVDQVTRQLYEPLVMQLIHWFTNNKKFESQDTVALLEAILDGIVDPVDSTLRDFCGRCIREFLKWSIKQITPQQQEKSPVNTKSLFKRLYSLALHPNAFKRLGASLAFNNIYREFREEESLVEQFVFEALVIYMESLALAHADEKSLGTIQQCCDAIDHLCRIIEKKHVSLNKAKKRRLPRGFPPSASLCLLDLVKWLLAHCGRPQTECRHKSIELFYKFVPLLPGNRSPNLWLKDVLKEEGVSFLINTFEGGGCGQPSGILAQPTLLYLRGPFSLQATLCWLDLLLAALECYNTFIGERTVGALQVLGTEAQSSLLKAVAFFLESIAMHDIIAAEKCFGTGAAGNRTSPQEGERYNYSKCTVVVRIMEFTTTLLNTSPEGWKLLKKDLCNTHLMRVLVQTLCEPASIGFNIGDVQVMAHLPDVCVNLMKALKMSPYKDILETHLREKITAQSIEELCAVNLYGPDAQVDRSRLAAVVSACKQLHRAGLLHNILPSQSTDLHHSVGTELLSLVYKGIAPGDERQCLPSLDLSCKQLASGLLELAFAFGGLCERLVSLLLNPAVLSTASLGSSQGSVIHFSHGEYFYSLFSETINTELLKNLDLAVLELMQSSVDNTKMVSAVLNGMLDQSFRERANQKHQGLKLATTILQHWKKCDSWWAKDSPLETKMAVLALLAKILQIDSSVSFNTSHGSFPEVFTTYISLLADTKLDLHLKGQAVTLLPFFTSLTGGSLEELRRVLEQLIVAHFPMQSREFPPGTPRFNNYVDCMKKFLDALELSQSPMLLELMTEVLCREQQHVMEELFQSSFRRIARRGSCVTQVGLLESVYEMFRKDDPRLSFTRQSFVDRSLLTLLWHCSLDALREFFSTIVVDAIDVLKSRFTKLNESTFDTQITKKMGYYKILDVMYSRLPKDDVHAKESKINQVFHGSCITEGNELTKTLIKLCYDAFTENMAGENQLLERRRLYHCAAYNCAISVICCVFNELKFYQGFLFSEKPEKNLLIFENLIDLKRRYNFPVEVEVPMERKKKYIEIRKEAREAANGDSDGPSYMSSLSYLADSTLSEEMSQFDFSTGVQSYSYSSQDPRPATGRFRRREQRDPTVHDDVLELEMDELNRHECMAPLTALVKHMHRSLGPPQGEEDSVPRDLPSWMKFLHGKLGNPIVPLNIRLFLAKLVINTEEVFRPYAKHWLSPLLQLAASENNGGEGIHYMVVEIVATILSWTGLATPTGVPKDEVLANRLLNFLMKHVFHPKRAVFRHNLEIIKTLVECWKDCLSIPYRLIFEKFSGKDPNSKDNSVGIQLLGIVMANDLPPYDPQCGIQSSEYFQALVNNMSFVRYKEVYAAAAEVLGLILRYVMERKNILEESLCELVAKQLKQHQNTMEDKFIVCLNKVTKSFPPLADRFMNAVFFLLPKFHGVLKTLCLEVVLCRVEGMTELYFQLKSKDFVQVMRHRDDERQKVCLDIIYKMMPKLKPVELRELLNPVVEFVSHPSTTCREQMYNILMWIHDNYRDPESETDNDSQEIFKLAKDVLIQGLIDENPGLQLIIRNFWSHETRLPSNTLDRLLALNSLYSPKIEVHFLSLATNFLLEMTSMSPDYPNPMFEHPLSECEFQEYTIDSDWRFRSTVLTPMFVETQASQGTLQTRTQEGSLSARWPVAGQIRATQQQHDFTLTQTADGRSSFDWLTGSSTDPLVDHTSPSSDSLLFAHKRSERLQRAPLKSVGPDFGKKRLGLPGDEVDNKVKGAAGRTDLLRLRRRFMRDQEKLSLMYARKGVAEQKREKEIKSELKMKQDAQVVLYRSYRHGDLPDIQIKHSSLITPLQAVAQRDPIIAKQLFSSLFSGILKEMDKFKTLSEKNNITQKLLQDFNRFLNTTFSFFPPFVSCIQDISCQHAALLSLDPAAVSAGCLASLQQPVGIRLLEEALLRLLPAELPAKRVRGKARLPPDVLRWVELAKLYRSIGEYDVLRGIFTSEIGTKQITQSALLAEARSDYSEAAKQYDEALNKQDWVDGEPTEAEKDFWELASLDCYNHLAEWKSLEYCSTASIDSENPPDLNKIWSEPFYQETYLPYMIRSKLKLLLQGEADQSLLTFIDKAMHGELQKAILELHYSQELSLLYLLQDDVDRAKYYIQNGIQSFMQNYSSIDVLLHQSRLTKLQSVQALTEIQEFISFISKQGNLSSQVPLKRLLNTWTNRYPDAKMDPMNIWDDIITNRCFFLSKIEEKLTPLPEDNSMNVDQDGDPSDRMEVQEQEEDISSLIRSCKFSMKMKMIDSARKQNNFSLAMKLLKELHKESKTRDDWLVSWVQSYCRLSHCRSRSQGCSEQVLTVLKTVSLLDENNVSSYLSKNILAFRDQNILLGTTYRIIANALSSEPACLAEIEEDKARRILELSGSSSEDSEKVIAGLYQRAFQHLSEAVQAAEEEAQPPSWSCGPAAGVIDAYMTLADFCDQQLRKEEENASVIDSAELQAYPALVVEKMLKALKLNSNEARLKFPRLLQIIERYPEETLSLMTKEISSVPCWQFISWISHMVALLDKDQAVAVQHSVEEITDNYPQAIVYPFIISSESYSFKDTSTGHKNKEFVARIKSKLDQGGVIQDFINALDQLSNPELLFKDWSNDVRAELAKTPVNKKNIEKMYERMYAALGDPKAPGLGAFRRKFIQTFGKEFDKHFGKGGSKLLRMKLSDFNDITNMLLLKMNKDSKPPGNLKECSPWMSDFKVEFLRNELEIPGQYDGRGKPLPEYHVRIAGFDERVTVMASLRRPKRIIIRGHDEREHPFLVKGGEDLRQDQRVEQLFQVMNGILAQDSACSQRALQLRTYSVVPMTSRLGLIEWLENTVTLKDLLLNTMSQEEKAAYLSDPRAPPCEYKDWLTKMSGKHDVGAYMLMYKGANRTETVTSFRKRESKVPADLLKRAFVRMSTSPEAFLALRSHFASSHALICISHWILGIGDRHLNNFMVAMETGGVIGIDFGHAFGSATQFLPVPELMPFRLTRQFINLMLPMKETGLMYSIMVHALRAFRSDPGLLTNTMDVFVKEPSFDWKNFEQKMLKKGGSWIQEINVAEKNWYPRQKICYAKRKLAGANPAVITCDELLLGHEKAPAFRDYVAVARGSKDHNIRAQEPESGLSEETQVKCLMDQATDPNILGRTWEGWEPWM

B1: scFv 18-2 (scFv, V domains shown)
VH: QVKLQESGAELVKPGASVKLSCKAFDYTFTTYDINWIKQRPGQGLWIGWIYPGSGNNKYNEKFKGKATLTADKSSRAAYMHLSSLTSEDSAVYFCAGGPLNMTGFDYWGQGTTVTVSS
VL: DIELTQSPSSMYASLGERVTITCKASQDINSYLSWFQQKPGKSPKTLIYRANRLVDGVPSRFSGSGSGQDYSLTISSLEYEDMGIYYCLQYDELPLTFGAGTKLEIK
On to B1, for which, in experiment [1], the decrease in p53 peptide phosphorylation activity was determined as 50%. In addition, in experiment [2], the Kd was found to be 1.4 nM.

One may read the Kd as the equilibrium constant for the complex coming apart. Read a low Kd as higher affinity.
